{"source": "paper PMC8152475", "about": "(Biomedicines, 2021)", "molecules": {"B1": {"name": "MPT64: secretory immunodominant antigen of MTB, located in the RD2 region (protein)", "chain": "APKTYCEELKGTDTGQACQIQMSDPAYNINISLPSYYPDQKSLENYIAQTRDKFLSAATSSTPREAPYELNITSATYQSAIPPRGTQAVVLKVYQNAGGTHPTTTYKAFDWDQAYRKPITYDTLWQADTDPLPVVFPIVQGELSKQTGQQVSIAPNAGLDPVNYQNFAVTNDGVIFFFNPGELLPEAAGPTQVLVPRSAIDSMLA"}}, "key": {"TBK1": {"target": "T1, TBK1 (Homo sapiens, UniProt Q9UHD2)", "T1 sequence (Q9UHD2 1-729)": "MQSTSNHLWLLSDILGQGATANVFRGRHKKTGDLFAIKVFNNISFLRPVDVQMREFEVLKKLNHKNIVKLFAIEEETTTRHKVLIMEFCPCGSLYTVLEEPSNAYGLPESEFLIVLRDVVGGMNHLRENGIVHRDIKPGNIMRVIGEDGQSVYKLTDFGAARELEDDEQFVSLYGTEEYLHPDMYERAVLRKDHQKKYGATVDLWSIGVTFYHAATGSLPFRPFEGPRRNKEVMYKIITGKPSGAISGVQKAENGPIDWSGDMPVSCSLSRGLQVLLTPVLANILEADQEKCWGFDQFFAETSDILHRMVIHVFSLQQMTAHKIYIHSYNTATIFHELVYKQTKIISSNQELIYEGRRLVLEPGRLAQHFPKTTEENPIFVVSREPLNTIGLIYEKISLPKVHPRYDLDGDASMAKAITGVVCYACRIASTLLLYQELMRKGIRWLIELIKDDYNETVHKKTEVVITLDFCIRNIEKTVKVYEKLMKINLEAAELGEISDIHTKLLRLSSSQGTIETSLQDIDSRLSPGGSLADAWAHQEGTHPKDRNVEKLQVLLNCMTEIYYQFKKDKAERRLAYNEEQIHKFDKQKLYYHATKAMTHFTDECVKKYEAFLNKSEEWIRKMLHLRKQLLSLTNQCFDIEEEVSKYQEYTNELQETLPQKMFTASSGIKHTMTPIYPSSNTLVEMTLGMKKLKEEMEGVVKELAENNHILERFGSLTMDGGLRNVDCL", "format": "binding"}, "HK2": {"tested_on": "HK2", "format": "binding"}, "[1]": {"tested_on": "apoptosis and inflammation", "conditions": "ref [10],[11]; cited from earlier work"}, "[2]": {"tested_on": "Caspase 3, FasL, Fas, and Bax in epithelioid cells and multinucleated giant cells", "conditions": "ref [45]; cited from earlier work"}, "[3]": {"tested_on": "murine macrophages and patients with TB", "conditions": "ref [10],[11]; cited from earlier work"}}, "data": [{"molecule": "B1", "values": [{"measurement": "region of MPT protein binding TBK1", "setting": "TBK1", "value": "The N-terminal domain of MPT64 interacted with TBK1, and the core peptide sequences for binding were 24–28 and 34–38 peptides"}, {"measurement": "domain of HK2 required for binding", "setting": "HK2", "value": "HK2 domain in HK2 were found to be essential for their interaction with MPT64"}, {"measurement": "region of MPT64 binding HK2", "setting": "HK2", "value": "The C-terminal of MPT64 was associated with HK2 and its essential peptides were located between 187–193"}, {"measurement": "apoptosis, TGF-β expression and inflammation", "setting": "[1]", "value": "reduced apoptosis by increasing the expression of TGF-β and reducing inflammation"}, {"measurement": "relation to expression of apoptotic factors", "setting": "[2]", "value": "related to the expression of apoptotic factors, such as Caspase 3, FasL, Fas, and Bax"}, {"measurement": "production of IFN-γ", "setting": "[3]", "value": "induced the production of IFN-γ in murine macrophages and patients with TB"}]}]}
